Measurements taken from PMC7397135.

Target: recombinant heterodimer of human FCGRT/B2M (human neonatal IgG Fc receptor) (human) (UniProt P55899)
Assay: electrochemical receptor sensor (amperometric I-T, time-current method); hFcγRn adsorbed in two layers on a gold nanoparticle-chitosan glassy carbon electrode with thionine and HRP as signal amplification, blocked with BSA; IgG in solution; constant voltage -0.38 V; data collected after 20 s; 8 mmol/L H2O2 in the test substrate; ultrapure water as blank; change rate of response current against IgG concentration, Ka by the double reciprocal (Lineweaver-Burk) method

| Ka (interconnected allosteric constant) | Substance |
| --- | --- |
| 1.59e-22 mol/L | Bovine IgG (antibody) |
| 1.02e-23 mol/L | Human IgG (antibody) |
| 8.61e-20 mol/L | Quail IgY (antibody) |
| 2.17e-21 mol/L | Sheep IgG (antibody) |

Second part, the substance before the results:

| Substance | Ka (interconnected allosteric constant) |
| --- | --- |
| Donkey IgG (antibody) | 1.14e-21 mol/L |
| Horse IgG (antibody) | 1.2e-22 mol/L |
| Rabbit IgG (antibody) | 2.29e-21 mol/L |
